Measurements reported in patent publication US9611297 (THRASOS THERAPEUTICS, dated 2017).
Positions of bridges follow the written chain, without caps; N, C: chain ends. Non-standard residues stand in square brackets, D forms with d. No end group written: not given here.

Key:
human uromodulin [1] = target: T1, human uromodulin (human, UniProt P07911 25-614); test: competition ELISA; biotin-uromodulin + peptide on coated light chain BER (competitor)
Procedure: (§1) Enzyme-linked immunosorbant assays (ELISA) were performed on the disclosed peptides. Plates were coated with the following light chain clones overnight at 4° C.: 0.05 uM BER (subtype lambda, isolated from SP2/0 cells), 0.2 uM ROC (subtype kappa, isolated from CHO cells), and 0.3 uM BEN (subtype lambda, isolated from CHO cells). The plates were washed and treated with bovine serum albumin (BSA) overnight at 4° C. For peptide plates, 10 nM biotin-uromodulin was mixed with peptide overnight at 4° C.

human uromodulin [2] = target: T1, human uromodulin; test: competition ELISA; biotin-uromodulin + peptide on coated light chain ROC (competitor)
Procedure: as §1

B1: SEQ ID No. 47 (peptide)
peptide: [dK][dK]CQQS[dY]SIPYTC[dK][dK]
modifications: disulfide 3-13 (inferred)
notes: synthetic; disulfide bridge formed per general procedure; also called K*K*CQQSY*SIPYTCK*K*
IC50 (human uromodulin [1]): 32.3 µM | IC50 (human uromodulin [2]): 33.5 µM
